Target: conSOSL.UFO.664 trimer with a C-terminal 8x His-tag (SUFO.664-His) (HIV-1 (consensus S))
Assay: SEC + native gel or EMSA; SEC on HiPrep 26/60 Sephacryl S-300 HR after lectin affinity; eluted fractions analysed by Native-PAGE with silver stain and Western blot

conSOSL.UFO.664 trimer with a C-terminal 8x His-tag (SUFO.664-His)
stoichiometry N: 3
